Measurements published in US20250026849A1 (ARCELLX, published 2025).

T1: P26 (human, UniProt P02771 381-609, limits assumed)
T1 construct: also called AFP p26
T1 sequence: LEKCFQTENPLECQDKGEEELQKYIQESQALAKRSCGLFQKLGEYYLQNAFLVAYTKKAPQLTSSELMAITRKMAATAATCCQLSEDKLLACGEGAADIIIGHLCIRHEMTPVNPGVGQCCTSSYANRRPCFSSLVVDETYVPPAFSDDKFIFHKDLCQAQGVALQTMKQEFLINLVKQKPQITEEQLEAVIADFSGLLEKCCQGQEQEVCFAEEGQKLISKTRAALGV


Biological target: T1, P26
Assay: ELISA, format not described
Set-up: unit not given here

| Binder | ELISA_avg |
| --- | --- |
| D domain SEQ ID NO: 886 (designed binder) MGSWYEFRARLLAIDERLWALGGSEAELAAFEKEIAAFESELQAYKGKGNPEVEHLREHAAHIRNFLQAYRHN | 20.9 |
| D domain SEQ ID NO: 900 (designed binder) MGSWAEFSDRLNAIDQRLWALGGSEAELAAFEKEIAAFESELQAYKGKGNPEVEILREHAAEIRKFLQAYRHN | 25.3 |
| D domain SEQ ID NO: 901 (designed binder) MGSWMEFNHRLQAIDGRLWALGGSEAELAAFEKEIAAFESELQAYKGKGNPEVEMLREHAAAIRAFLQAYRHN | 33.4 |
| D domain SEQ ID NO: 894 (designed binder) MGSWTEFVNRLYAIDSRLWALGGSEAELAAFEKEIAAFESELQAYKGKGNPEVEGLRTHAAKIRHWLQAYRHN | 16.7 |
| D domain SEQ ID NO: 903 (designed binder) MGSWYEFYYRLEAIDNRLIALGGSEAELAAFEKEIAAFESELQAYKGKGNPEVEVLREHAAKIREWLQAYRHN | 29.6 |
| D domain SEQ ID NO: 904 (designed binder) MGSWYEFVSRLEAIDDRLYALGGSEAELAAFEKEIAAFESELQAYKGKGNPEVEMLRQHAAAIRHWLQAYRHN | 33.1 |
| D domain SEQ ID NO: 895 (designed binder) MGSWMEFVDRLSAIDRRLWALGGSEAELAAFEKEIAAFESELQAYKGKGNPEVEVLREHAANIRQWLQAYRHN | 32.1 |
| D domain SEQ ID NO: 908 (designed binder) MGSWYEFMYRLDAIEYRLFALGGSEAELAAFEKEIAAFESELQAYKGKGNPEVESLRIHAAMIREWLQAYRHN | 19.4 |
| D domain SEQ ID NO: 898 (designed binder) MGSWLEFHSRLDAIDTRLWALGGSEAELAAFEKEIAAFESELQAYKGKGNPEVEKLREHAAAIRHYLQAYRHN | 30.8 |
| D domain SEQ ID NO: 890 (designed binder) MGSWYEFQQRLEAIDTRLWALGGSEAELAAFEKEIAAFESELQAYKGKGNPEVEELREHAAHIRHWLQAYRHN | 27.3 |
| D domain SEQ ID NO: 892 (designed binder) MGSWTEFHQRLDAIDERLWALGGSEAELAAFEKEIAAFESELQAYKGKGNPEVEFLREHAAKIRMWLQAYRHN | 24.4 |
| D domain SEQ ID NO: 888 (designed binder) MGSWTEFQNRLNAIDHRLWALGGSEAELAAFEKEIAAFESELQAYKGKGNPEVESLREHAAKIRVWLQAYRHN | 30.5 |
| D domain SEQ ID NO: 906 (designed binder) MGSWFEFFERLAAIEDRLWALGGSEAELAAFEKEIAAFESELQAYKGKGNPEVESLRVHAAAIRAFLQAYRHN | 20.3 |
| D domain SEQ ID NO: 902 (designed binder) MGSWYEFYKRLEAIDNRLYALGGSEAELAAFEKEIAAFESELQAYKGKGNPEVEYLREHAAAIRHWLQAYRHN | 30.8 |
| D domain SEQ ID NO: 889 (designed binder) MGSWSEFFKRLEAIDRRLWALGGSEAELAAFEKEIAAFESELQAYKGKGNPEVEELREHAAHIRVWLQAYRHN | 30.2 |
| D domain SEQ ID NO: 899 (designed binder) MGSWTEFYQRLDAIDTRLWALGGSEAELAAFEKEIAAFESELQAYKGKGNPEVEGLRQQAAQIRAWLQAYRHN | 29.7 |
| D domain SEQ ID NO: 891 (designed binder) MGSWTEFEKRLHAIDYRLWALGGSEAELAAFEKEIAAFESELQAYKGKGNPEVEDLREHAAAIRHWLQAYRHN | 17.1 |
| D domain SEQ ID NO: 896 (designed binder) MGSWVEFVSRLYAIDFRLWALGGSEAELAAFEKEIAAFESELQAYKGKGNPEVEALREHAAQIRDWLQAYRHN | 29 |
| D domain SEQ ID NO: 893 (designed binder) MGSWLEFSQRLTAIDSRLWALGGSEAELAAFEKEIAAFESELQAYKGKGNPEVENLREHAAKIRNWLQAYRHN | 30.4 |
| D domain SEQ ID NO: 907 (designed binder) MGSWIEFKYRLDAIEWRLEALGGSEAELAAFEKEIAAFESELQAYKGKGNPEVESLRIHAAAIRTWLQAYRHN | 18.3 |
| D domain SEQ ID NO: 897 (designed binder) MGSWSEFHTRLDAIDTRLWALGGSEAELAAFEKEIAAFESELQAYKGKGNPEVEDLRRHAAAIRFWLQAYRHN | 23.5 |
| D domain SEQ ID NO: 905 (designed binder) MGSWYEFSHRLEAIEDRLFALGGSEAELAAFEKEIAAFESELQAYKGKGNPEVEPLREHAAYIRHWLQAYRHN | 26 |
| D domain SEQ ID NO: 922 (designed binder) MGSWFEFSNRLYAIWHRLTALGGSEAELAAFEKEIAAFESELQAYKGKGNPEVESLRTQAAFIRILLQAYRHN | 15.2 |
| D domain SEQ ID NO: 924 (designed binder) MGSWFEFEDRLFAIWTRLEALGGSEAELAAFEKEIAAFESELQAYKGKGNPEVESLRQSAASIRWLLQAYRHN | 10.9 |

The remaining lines, values ahead:

| ELISA_avg | Binder |
| --- | --- |
| 20 | D domain SEQ ID NO: 919 (designed binder) MGSWVEFYHRLDAIFDRLDALGGSEAELAAFEKEIAAFESELQAYKGKGNPEVEELRANAAGIRSWLQAYRHN |
| 22.9 | D domain SEQ ID NO: 921 (designed binder) MGSWHEFYDRLYAIWDRLDALGGSEAELAAFEKEIAAFESELQAYKGKGNPEVEGLRNAAAVIRIFLQAYRHN |
| 8.54 | D domain SEQ ID NO: 926 (designed binder) MGSWGEFTVRLYAIDRRLDALGGSEAELAAFEKEIAAFESELQAYKGKGNPEVEELRRFAAIIRAFLQAYRHN |
| 20.2 | D domain SEQ ID NO: 928 (designed binder) MGSWSIFKYHLADIKLLLEALGGSEAELAYFEFLIADFEFTLQDYKGKGNPEVEALRKEAAAIRDELQAYRHN |
| 27.4 | D domain SEQ ID NO: 914 (designed binder) MGSWYEFYLRLSAIEDRLFALGGSEAELAAFEKEIAAFESELQAYKGKGNPEVESLRVQAAHIRTWLQAYRHN |
| 28.7 | D domain SEQ ID NO: 918 (designed binder) MGSWVEFYERLNAIEYRLEALGGSEAELAAFEKEIAAFESELQAYKGKGNPEVESLREHAAYIRQWLQAYRHN |
| 28.5 | D domain SEQ ID NO: 917 (designed binder) MGSWVEFYHRLEAIEQRLMALGGSEAELAAFEKEIAAFESELQAYKGKGNPEVESLREQAAAIRSWLQAYRHN |
| 30.8 | D domain SEQ ID NO: 913 (designed binder) MGSWSEFYYRLAAIESRLFALGGSEAELAAFEKEIAAFESELQAYKGKGNPEVERLREHAAHIRRWLQAYRHN |
| 16.9 | D domain SEQ ID NO: 912 (designed binder) MGSWSEFVHRLDAIEVRLFALGGSEAELAAFEKEIAAFESELQAYKGKGNPEVEELRYHAAKIRSWLQAYRHN |
| 11.7 | D domain SEQ ID NO: 909 (designed binder) MGSWVEFVTRLEAIEDRLFALGGSEAELAAFEKEIAAFESELQAYKGKGNPEVEHLRAHAAHIRHWLQAYRHN |
| 26.9 | D domain SEQ ID NO: 916 (designed binder) MGSWHEFWVRLEAIESRLFALGGSEAELAAFEKEIAAFESELQAYKGKGNPEVESLRVQAAHIRSWLQAYRHN |
| 31.9 | D domain SEQ ID NO: 915 (designed binder) MGSWYEFYDRLDAIEDRLFALGGSEAELAAFEKEIAAFESELQAYKGKGNPEVESLRDQAAYIRTWLQAYRHN |
| 23.8 | D domain SEQ ID NO: 911 (designed binder) MGSWVEFVERLDAIEFRLFALGGSEAELAAFEKEIAAFESELQAYKGKGNPEVEKLRNHAAHIRSWLQAYRHN |
| 30.1 | D domain SEQ ID NO: 910 (designed binder) MGSWYEFVIRLDAIEDRLFALGGSEAELAAFEKEIAAFESELQAYKGKGNPEVEHLRVHAAHIRVWLQAYRHN |
| 8 | D domain SEQ ID NO: 929 (designed binder) MGSWHHFKYFLADIKSILEALGGSEAELAIFEVQIAYFEDLLQSYKGKGNPEVEALRKEAAAIRDELQAYRHN |
| 25.4 | D domain SEQ ID NO: 920 (designed binder) MGSWSEFTDRLFAIEDRLLALGGSEAELAAFEKEIAAFESELQAYKGKGNPEVEDLRMHAASIRLWLQAYRHN |
| 8.21 | D domain SEQ ID NO: 925 (designed binder) MGSWHEFSERLFAIWTRLEALGGSEAELAAFEKEIAAFESELQAYKGKGNPEVEALRQSAAFIRVMLQAYRHN |
| 19 | D domain SEQ ID NO: 923 (designed binder) MGSWFEFSDRLYAIWERLDALGGSEAELAAFEKEIAAFESELQAYKGKGNPEVESLRFQAAFIRYQLQAYRHN |
| 20.1 | D domain SEQ ID NO: 927 (designed binder) MGSWYEFDHRLMAISFRLVALGGSEAELAAFEKEIAAFESELQAYKGKGNPEVETLRRRAANIRHLLQAYRHN |
